Assay results reported in patent US20210032299A1 (Eli Lilly, published 2021).
Starred links: 1 amine or outer side, 2 acyl side, 3 side chain; linkers in the order of their positions; H or OH if unused. Non-standard residues stand in square brackets, D forms with d. Groups on a side chain read outwards from the residue. No end group written: not given here. *: point of attachment. C20 diacid = O=C(O)CCCCCCCCCCCCCCCCCCC(=O)*; αMePhe(2-F) = C[C@](N)(Cc1ccccc1F)C(=O)O; γGlu = O=C(O)[C@H](CCC(=O)[*:2])N[*:1]; 4Pal = N[C@@H](Cc1ccncc1)C(=O)O; AEEA = NCCOCCOCC(=O)O; Aib = CC(C)(N)C(=O)O

Legend:
Assay in all cases: cell-based or functional assay
[1] = target: T1, human glucose-dependent insulinotropic peptide receptor (human, UniProt P48546 22-466)
T1 sequence (looked up): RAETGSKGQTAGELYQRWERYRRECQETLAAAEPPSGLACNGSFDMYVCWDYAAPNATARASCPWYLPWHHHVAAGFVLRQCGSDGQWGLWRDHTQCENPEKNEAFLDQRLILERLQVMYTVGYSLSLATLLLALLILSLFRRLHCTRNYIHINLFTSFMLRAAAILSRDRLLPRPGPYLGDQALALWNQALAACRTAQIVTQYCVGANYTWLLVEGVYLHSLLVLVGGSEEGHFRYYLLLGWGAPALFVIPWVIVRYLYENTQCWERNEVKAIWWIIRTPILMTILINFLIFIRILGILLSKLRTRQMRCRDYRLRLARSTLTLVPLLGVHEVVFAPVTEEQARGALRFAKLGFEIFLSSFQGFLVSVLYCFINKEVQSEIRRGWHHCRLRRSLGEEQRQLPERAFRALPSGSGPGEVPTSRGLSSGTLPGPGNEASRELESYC

[2] = target: human GLP-1 receptor (human, UniProt P43220 24-463)
[3] = target: human glucagon receptor (human, UniProt P47871 26-477)
Chain of human glucagon receptor (P47871 26-477): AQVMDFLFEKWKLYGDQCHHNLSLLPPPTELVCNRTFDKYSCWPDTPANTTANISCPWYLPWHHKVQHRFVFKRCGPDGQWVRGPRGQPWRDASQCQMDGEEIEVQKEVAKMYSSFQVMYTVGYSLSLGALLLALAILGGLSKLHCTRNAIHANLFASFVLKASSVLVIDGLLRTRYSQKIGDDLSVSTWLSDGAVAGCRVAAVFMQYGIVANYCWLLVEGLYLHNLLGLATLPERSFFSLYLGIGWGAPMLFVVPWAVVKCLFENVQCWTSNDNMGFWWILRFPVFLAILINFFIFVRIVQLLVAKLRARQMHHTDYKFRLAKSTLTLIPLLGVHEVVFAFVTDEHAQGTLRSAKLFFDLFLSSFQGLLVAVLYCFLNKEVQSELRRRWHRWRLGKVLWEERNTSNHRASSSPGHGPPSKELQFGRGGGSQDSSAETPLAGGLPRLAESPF

B1: Example 38 (peptide)
peptide: Y[Aib]EGT[αMePhe(2-F)]ISDYSIALDKK([AEEA-AEEA-γGlu-C20 diacid])HQ[Aib]DFVE[4Pal]LLETGPSSGAPPPS-NH2
modifications: N-terminus assumed
SMILES: CC[C@H](C)[C@H](NC(=O)[C@H](CO)NC(=O)[C@H](Cc1ccc(O)cc1)NC(=O)[C@H](CC(=O)O)NC(=O)[C@H](CO)NC(=O)[C@@H](NC(=O)[C@](C)(Cc1ccccc1F)NC(=O)[C@@H](NC(=O)CNC(=O)[C@H](CCC(=O)O)NC(=O)C(C)(C)NC(=O)[C@@H](N)Cc1ccc(O)cc1)[C@@H](C)O)[C@@H](C)CC)C(=O)N[C@@H](C)C(=O)N[C@@H](CC(C)C)C(=O)N[C@@H](CC(=O)O)C(=O)N[C@@H](CCCCN)C(=O)N[C@@H](CCCCNC(=O)COCCOCCNC(=O)COCCOCCNC(=O)CC[C@H](NC(=O)CCCCCCCCCCCCCCCCCCC(=O)O)C(=O)O)C(=O)N[C@@H](Cc1c[nH]cn1)C(=O)N[C@@H](CCC(N)=O)C(=O)NC(C)(C)C(=O)N[C@@H](CC(=O)O)C(=O)N[C@@H](Cc1ccccc1)C(=O)N[C@H](C(=O)N[C@@H](CCC(=O)O)C(=O)N[C@@H](Cc1ccncc1)C(=O)N[C@@H](CC(C)C)C(=O)N[C@@H](CC(C)C)C(=O)N[C@@H](CCC(=O)O)C(=O)N[C@H](C(=O)NCC(=O)N1CCC[C@H]1C(=O)N[C@@H](CO)C(=O)N[C@@H](CO)C(=O)NCC(=O)N[C@@H](C)C(=O)N1CCC[C@H]1C(=O)N1CCC[C@H]1C(=O)N1CCC[C@H]1C(=O)N[C@@H](CO)C(N)=O)[C@@H](C)O)C(C)C
[1]
  hGIPR cAMP Rel EC50: 0.0368 nM
[2]
  hGLP1R cAMP Rel EC50: 1390 nM
[3]
  hGcgR cAMP Rel EC50: > 5000 nM

B2: Example 40 (peptide)
peptide: Y[Aib]EGT[αMePhe(2-F)]ISDYSIALDKK([AEEA-AEEA-γGlu-C20 diacid])HQ[Aib]DFVEWLLETGPSSGAPPPS-NH2
modifications: N-terminus assumed
SMILES: CC[C@H](C)[C@H](NC(=O)[C@H](CO)NC(=O)[C@H](Cc1ccc(O)cc1)NC(=O)[C@H](CC(=O)O)NC(=O)[C@H](CO)NC(=O)[C@@H](NC(=O)[C@](C)(Cc1ccccc1F)NC(=O)[C@@H](NC(=O)CNC(=O)[C@H](CCC(=O)O)NC(=O)C(C)(C)NC(=O)[C@@H](N)Cc1ccc(O)cc1)[C@@H](C)O)[C@@H](C)CC)C(=O)N[C@@H](C)C(=O)N[C@@H](CC(C)C)C(=O)N[C@@H](CC(=O)O)C(=O)N[C@@H](CCCCN)C(=O)N[C@@H](CCCCNC(=O)COCCOCCNC(=O)COCCOCCNC(=O)CC[C@H](NC(=O)CCCCCCCCCCCCCCCCCCC(=O)O)C(=O)O)C(=O)N[C@@H](Cc1c[nH]cn1)C(=O)N[C@@H](CCC(N)=O)C(=O)NC(C)(C)C(=O)N[C@@H](CC(=O)O)C(=O)N[C@@H](Cc1ccccc1)C(=O)N[C@H](C(=O)N[C@@H](CCC(=O)O)C(=O)N[C@@H](Cc1c[nH]c2ccccc12)C(=O)N[C@@H](CC(C)C)C(=O)N[C@@H](CC(C)C)C(=O)N[C@@H](CCC(=O)O)C(=O)N[C@H](C(=O)NCC(=O)N1CCC[C@H]1C(=O)N[C@@H](CO)C(=O)N[C@@H](CO)C(=O)NCC(=O)N[C@@H](C)C(=O)N1CCC[C@H]1C(=O)N1CCC[C@H]1C(=O)N1CCC[C@H]1C(=O)N[C@@H](CO)C(N)=O)[C@@H](C)O)C(C)C
[1]
  hGIPR cAMP Rel EC50: 0.033 nM
[2]
  hGLP1R cAMP Rel EC50: 2330 nM
[3]
  hGcgR cAMP Rel EC50: > 5000 nM

B3: Example 39 (peptide)
peptide: Y[Aib]EGT[αMePhe(2-F)]ISDYSIALDKK([AEEA-AEEA-γGlu-C20 diacid])HQ[Aib]DFVE[4Pal]LLEGGPSSGAPPPS-NH2
modifications: N-terminus assumed
SMILES: CC[C@H](C)[C@H](NC(=O)[C@H](CO)NC(=O)[C@H](Cc1ccc(O)cc1)NC(=O)[C@H](CC(=O)O)NC(=O)[C@H](CO)NC(=O)[C@@H](NC(=O)[C@](C)(Cc1ccccc1F)NC(=O)[C@@H](NC(=O)CNC(=O)[C@H](CCC(=O)O)NC(=O)C(C)(C)NC(=O)[C@@H](N)Cc1ccc(O)cc1)[C@@H](C)O)[C@@H](C)CC)C(=O)N[C@@H](C)C(=O)N[C@@H](CC(C)C)C(=O)N[C@@H](CC(=O)O)C(=O)N[C@@H](CCCCN)C(=O)N[C@@H](CCCCNC(=O)COCCOCCNC(=O)COCCOCCNC(=O)CC[C@H](NC(=O)CCCCCCCCCCCCCCCCCCC(=O)O)C(=O)O)C(=O)N[C@@H](Cc1c[nH]cn1)C(=O)N[C@@H](CCC(N)=O)C(=O)NC(C)(C)C(=O)N[C@@H](CC(=O)O)C(=O)N[C@@H](Cc1ccccc1)C(=O)N[C@H](C(=O)N[C@@H](CCC(=O)O)C(=O)N[C@@H](Cc1ccncc1)C(=O)N[C@@H](CC(C)C)C(=O)N[C@@H](CC(C)C)C(=O)N[C@@H](CCC(=O)O)C(=O)NCC(=O)NCC(=O)N1CCC[C@H]1C(=O)N[C@@H](CO)C(=O)N[C@@H](CO)C(=O)NCC(=O)N[C@@H](C)C(=O)N1CCC[C@H]1C(=O)N1CCC[C@H]1C(=O)N1CCC[C@H]1C(=O)N[C@@H](CO)C(N)=O)C(C)C
[1]
  hGIPR cAMP Rel EC50: 0.0112 nM
[2]
  hGLP1R cAMP Rel EC50: 3330 nM
[3]
  hGcgR cAMP Rel EC50: > 5000 nM

B4: Example 36 (peptide)
peptide: Y[Aib]EGT[αMePhe(2-F)]ISDYSIALDKK([AEEA-AEEA-γGlu-C20 diacid])HQ[Aib]DFVEYLLETGPSSGAPPPS-NH2
modifications: N-terminus assumed
SMILES: CC[C@H](C)[C@H](NC(=O)[C@H](CO)NC(=O)[C@H](Cc1ccc(O)cc1)NC(=O)[C@H](CC(=O)O)NC(=O)[C@H](CO)NC(=O)[C@@H](NC(=O)[C@](C)(Cc1ccccc1F)NC(=O)[C@@H](NC(=O)CNC(=O)[C@H](CCC(=O)O)NC(=O)C(C)(C)NC(=O)[C@@H](N)Cc1ccc(O)cc1)[C@@H](C)O)[C@@H](C)CC)C(=O)N[C@@H](C)C(=O)N[C@@H](CC(C)C)C(=O)N[C@@H](CC(=O)O)C(=O)N[C@@H](CCCCN)C(=O)N[C@@H](CCCCNC(=O)COCCOCCNC(=O)COCCOCCNC(=O)CC[C@H](NC(=O)CCCCCCCCCCCCCCCCCCC(=O)O)C(=O)O)C(=O)N[C@@H](Cc1c[nH]cn1)C(=O)N[C@@H](CCC(N)=O)C(=O)NC(C)(C)C(=O)N[C@@H](CC(=O)O)C(=O)N[C@@H](Cc1ccccc1)C(=O)N[C@H](C(=O)N[C@@H](CCC(=O)O)C(=O)N[C@@H](Cc1ccc(O)cc1)C(=O)N[C@@H](CC(C)C)C(=O)N[C@@H](CC(C)C)C(=O)N[C@@H](CCC(=O)O)C(=O)N[C@H](C(=O)NCC(=O)N1CCC[C@H]1C(=O)N[C@@H](CO)C(=O)N[C@@H](CO)C(=O)NCC(=O)N[C@@H](C)C(=O)N1CCC[C@H]1C(=O)N1CCC[C@H]1C(=O)N1CCC[C@H]1C(=O)N[C@@H](CO)C(N)=O)[C@@H](C)O)C(C)C
[1]
  hGIPR cAMP Rel EC50: 0.0543 nM
[2]
  hGLP1R cAMP Rel EC50: 1080 nM
[3]
  hGcgR cAMP Rel EC50: > 5000 nM

B5: Example 37 (peptide)
peptide: Y[Aib]EGT[αMePhe(2-F)]ISDYSIALDKK([AEEA-AEEA-γGlu-C20 diacid])HQ[Aib]DFVEYLLEGGPSSGAPPPS-NH2
modifications: N-terminus assumed
SMILES: CC[C@H](C)[C@H](NC(=O)[C@H](CO)NC(=O)[C@H](Cc1ccc(O)cc1)NC(=O)[C@H](CC(=O)O)NC(=O)[C@H](CO)NC(=O)[C@@H](NC(=O)[C@](C)(Cc1ccccc1F)NC(=O)[C@@H](NC(=O)CNC(=O)[C@H](CCC(=O)O)NC(=O)C(C)(C)NC(=O)[C@@H](N)Cc1ccc(O)cc1)[C@@H](C)O)[C@@H](C)CC)C(=O)N[C@@H](C)C(=O)N[C@@H](CC(C)C)C(=O)N[C@@H](CC(=O)O)C(=O)N[C@@H](CCCCN)C(=O)N[C@@H](CCCCNC(=O)COCCOCCNC(=O)COCCOCCNC(=O)CC[C@H](NC(=O)CCCCCCCCCCCCCCCCCCC(=O)O)C(=O)O)C(=O)N[C@@H](Cc1c[nH]cn1)C(=O)N[C@@H](CCC(N)=O)C(=O)NC(C)(C)C(=O)N[C@@H](CC(=O)O)C(=O)N[C@@H](Cc1ccccc1)C(=O)N[C@H](C(=O)N[C@@H](CCC(=O)O)C(=O)N[C@@H](Cc1ccc(O)cc1)C(=O)N[C@@H](CC(C)C)C(=O)N[C@@H](CC(C)C)C(=O)N[C@@H](CCC(=O)O)C(=O)NCC(=O)NCC(=O)N1CCC[C@H]1C(=O)N[C@@H](CO)C(=O)N[C@@H](CO)C(=O)NCC(=O)N[C@@H](C)C(=O)N1CCC[C@H]1C(=O)N1CCC[C@H]1C(=O)N1CCC[C@H]1C(=O)N[C@@H](CO)C(N)=O)C(C)C
[1]
  hGIPR cAMP Rel EC50: 0.036 nM
[2]
  hGLP1R cAMP Rel EC50: 61.1 nM
[3]
  hGcgR cAMP Rel EC50: > 5000 nM
